This is an account of results in CN115368464A (HEFEI TIANGANG IMMUNOLOGY PHARMACEUTICAL CO LTD, dated 2022).

The target of the assay is T1, CD33蛋白 (SEQ ID NO:27) on CHO-K1-CD33 / A375-CD33 cells (Homo sapiens (Human), UniProt P20138 18-364).
T1 construct: also called CHO-K1-CD33细胞; A375-CD33细胞
The experiment in a line: flow cytometry on CHO-K1-CD33 cells, Alexa-647 anti-human Fc.

T1 sequence (P20138 18-364 limits assumed): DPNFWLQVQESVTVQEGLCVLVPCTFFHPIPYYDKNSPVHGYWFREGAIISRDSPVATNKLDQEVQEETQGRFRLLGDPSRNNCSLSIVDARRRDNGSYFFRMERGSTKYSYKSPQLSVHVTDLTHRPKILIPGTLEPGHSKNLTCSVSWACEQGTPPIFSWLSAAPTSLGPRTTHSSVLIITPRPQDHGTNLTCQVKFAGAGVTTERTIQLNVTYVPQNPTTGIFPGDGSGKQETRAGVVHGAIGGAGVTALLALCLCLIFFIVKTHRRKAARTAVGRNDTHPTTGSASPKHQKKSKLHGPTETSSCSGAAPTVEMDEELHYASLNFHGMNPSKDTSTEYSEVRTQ

B1: CD3×CD33双特异性抗体 (bispecific antibody, human IgG1, kappa, L234A L235A)
chain: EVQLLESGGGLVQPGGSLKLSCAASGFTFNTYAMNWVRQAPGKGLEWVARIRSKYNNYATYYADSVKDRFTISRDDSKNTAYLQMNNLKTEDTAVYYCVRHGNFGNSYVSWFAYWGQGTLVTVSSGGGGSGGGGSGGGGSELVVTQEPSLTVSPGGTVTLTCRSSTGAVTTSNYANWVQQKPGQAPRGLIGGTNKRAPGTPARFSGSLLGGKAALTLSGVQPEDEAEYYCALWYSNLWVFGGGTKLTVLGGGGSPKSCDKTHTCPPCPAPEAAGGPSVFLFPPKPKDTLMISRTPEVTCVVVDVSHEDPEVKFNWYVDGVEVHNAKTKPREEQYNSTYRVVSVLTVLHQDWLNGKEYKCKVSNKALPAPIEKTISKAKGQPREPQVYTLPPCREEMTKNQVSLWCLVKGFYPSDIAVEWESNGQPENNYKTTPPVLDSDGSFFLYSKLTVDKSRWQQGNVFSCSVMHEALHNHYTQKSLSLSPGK
heavy: EVQLVQSGAEVKKPGSSVKVSCKASGYTITDSNIHWVRQAPGQSLEWIGYIYPYNGGTDYNQKFKNRATLTVDNPTNTAYMELSSLRSEDTAFYYCVNGNPWLAYWGQGTLVTVSSASTKGPSVFPLAPSSKSTSGGTAALGCLVKDYFPEPVTVSWNSGALTSGVHTFPAVLQSSGLYSLSSVVTVPSSSLGTQTYICNVNHKPSNTKVDKKVEPKSCDKTHTCPPCPAPEAAGGPSVFLFPPKPKDTLMISRTPEVTCVVVDVSHEDPEVKFNWYVDGVEVHNAKTKPREEQYNSTYRVVSVLTVLHQDWLNGKEYKCKVSNKALPAPIEKTISKAKGQPREPQVCTLPPSREEMTKNQVSLSCAVKGFYPSDIAVEWESNGQPENNYKTTPPVLDSDGSFFLVSKLTVDKSRWQQGNVFSCSVMHEALHNHYTQKSLSLSPGK
light: DIQLTQSPSTLSASVGDRVTITCRASESLDNYGIRFLTWFQQKPGKAPKLLMYAASNQGSGVPSRFSGSGSGTEFTLTISSLQPDDFATYYCQQTKEVPWSFGQGTKVEVKRTVAAPSVFIFPPSDEQLKSGTASVVCLLNNFYPREAKVQWKVDNALQSGNSQESVTEQDSKDSTYSLSSTLTLSKADYEKHKVYACEVTHQGLSSPVTKSFNRGEC
notes: Fc is human IgG1 with L234A/L235A; also called 抗体CD3×CD33; CD3×CD33双特异抗体
Turning to B1, the binding result is listed as “binds”.
